Consider 94 variants from the supplement of paper PMC10567573.

Sequences and labels used below:
B1: DLC1 (parent)
chain: NDDSADYQHFLQDCVDGLFKEVKE
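Note: lentivirally expressed fusions sorted by FACS into six bins by GFP to DsRed ratio, PSI derived from sequencing read proportions per bin multiplied by bin number.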

The variants in this data set derive from B1. The data set is described as follows: protein stability index of a GFP-peptide fusion (GPS, HEK-293T) (PSI 1-6); higher = more stable. Conditions: c terminus: a fixed tail appended.
In the case of NDDSADYQDFLQDCVDGLFKEVKE [H9D], the protein stability index was found to be 2.83.
Consider NDDSADYQQFLQDCVDGLFKEVKE [H9Q], for which the protein stability index is 2.23.
Turning to NDDSADYQGFLQDCVDGLFKEVKE [H9G], the protein stability index is 2.62.
On to NDDSADYQRFLQDCVDGLFKEVKE [H9R], for which the protein stability index was found to be 2.86.
As for NDDSADYQFFLQDCVDGLFKEVKE [H9F], the figure is 2.32; as for NDDSADYQAFLQDCVDGLFKEVKE [H9A], 3.13; as for NDDSADYQTFLQDCVDGLFKEVKE [H9T], 2.25.
NDDSADYQPFLQDCVDGLFKEVKE [H9P]: the protein stability index is 3.71.
As to NDDSADYQMFLQDCVDGLFKEVKE [H9M], the protein stability index was determined as 2.74.
In the case of NDDSADYQNFLQDCVDGLFKEVKE [H9N], the protein stability index is 3.02.
As for NDDSADYQSFLQDCVDGLFKEVKE [H9S], the protein stability index is 3.43.
Regarding NDDSADYQYFLQDCVDGLFKEVKE [H9Y], the protein stability index stood at 2.24.
With NDDSADYQIFLQDCVDGLFKEVKE [H9I], the protein stability index came out at 2.48.
Consider NDDSADYQLFLQDCVDGLFKEVKE [H9L], for which the protein stability index came to 2.21.
Consider NDDSADYQWFLQDCVDGLFKEVKE [H9W], for which the protein stability index was 3.03.
As for NDDSADYQVFLQDCVDGLFKEVKE [H9V], the figure is 1.92.
With NDDSADYQCFLQDCVDGLFKEVKE [H9C], the protein stability index worked out at 2.53.
For the variant NDDSADYQKFLQDCVDGLFKEVKE [H9K], the protein stability index was determined as 2.63.
With NDDSADYQHFLQDCHDGLFKEVKE [V15H], the protein stability index turned out to be 4.94.
NDDSADYQHFLQDCLDGLFKEVKE [V15L]: the protein stability index was determined as 3.34.
As to NDDSADYQHFLQDCNDGLFKEVKE [V15N], the protein stability index came out at 4.78.
For the variant NDDSADYQHFLQDCADGLFKEVKE [V15A], the protein stability index amounted to 4.04.
Consider NDDSADYQHFLQDCDDGLFKEVKE [V15D], for which the protein stability index was 4.8.
Turning to NDDSADYQHFLQDCYDGLFKEVKE [V15Y], the protein stability index was determined as 3.61.
On to NDDSADYQHFLQDCQDGLFKEVKE [V15Q], for which the protein stability index is 4.74.
In the case of NDDSADYQHFLQDCCDGLFKEVKE [V15C], the protein stability index came out at 4.79.
For the variant NDDSADYQHFLQDCRDGLFKEVKE [V15R], the protein stability index came to 4.73.
In the case of NDDSADYQHFLQDCWDGLFKEVKE [V15W], the protein stability index was found to be 3.8.
On to NDDSADYQHFLQDCKDGLFKEVKE [V15K], for which the protein stability index is 4.71.
In the case of NDDSADYQHFLQDCGDGLFKEVKE [V15G], the protein stability index was determined as 5.45.
For NDDSADYQHFLQDCMDGLFKEVKE [V15M], the protein stability index was determined as 4.34.
NDDSADYQHFLQDCFDGLFKEVKE [V15F]: the protein stability index turned out to be 3.85.
In the case of NDDSADYQHFLQDCTDGLFKEVKE [V15T], the protein stability index stood at 5.09.
NDDSADYQHFLQDCSDGLFKEVKE [V15S]: the protein stability index came out at 4.71.
To NDDSADYQHFLQDCPDGLFKEVKE [V15P] belongs 4.6.
On to NDDSADYQHFLQDCIDGLFKEVKE [V15I], for which the protein stability index is 2.68.
Take NDDSADYQHFLQDCEDGLFKEVKE [V15E]: the protein stability index is 4.9.
Turning to NDDSADYQHFLDDCVDGLFKEVKE [Q12D], the protein stability index was 4.83.
As for NDDSADYQHFLEDCVDGLFKEVKE [Q12E], the figure is 4.75.
To NDDSADYQHFLVDCVDGLFKEVKE [Q12V] belongs 3.33.
To NDDSADYQHFLKDCVDGLFKEVKE [Q12K] belongs 2.33; to NDDSADYQHFLSDCVDGLFKEVKE [Q12S], 3.3.
In the case of NDDSADYQHFLGDCVDGLFKEVKE [Q12G], the protein stability index was found to be 4.34.
Take NDDSADYQHFLYDCVDGLFKEVKE [Q12Y]: the protein stability index was 3.71.
On to NDDSADYQHFLNDCVDGLFKEVKE [Q12N], for which the protein stability index is 4.24.
Turning to NDDSADYQHFLHDCVDGLFKEVKE [Q12H], the protein stability index is 3.17.
As to NDDSADYQHFLPDCVDGLFKEVKE [Q12P], the protein stability index is 4.15.
With NDDSADYQHFLTDCVDGLFKEVKE [Q12T], the protein stability index worked out at 4.32.
To NDDSADYQHFLRDCVDGLFKEVKE [Q12R] belongs 2.42; to NDDSADYQHFLIDCVDGLFKEVKE [Q12I], 3; to NDDSADYQHFLWDCVDGLFKEVKE [Q12W], 1.79.
As to NDDSADYQHFLMDCVDGLFKEVKE [Q12M], the protein stability index worked out at 3.73.
Take NDDSADYQHFLLDCVDGLFKEVKE [Q12L]: the protein stability index is 3.31.
With NDDSADYQHFLCDCVDGLFKEVKE [Q12C], the protein stability index stood at 3.91.
As for NDDSADYQHFLFDCVDGLFKEVKE [Q12F], the protein stability index was determined as 3.48.
Take NDDSADKQHFLQDCVDGLFKEVKE [Y7K]: the protein stability index worked out at 4.33.
As to NDDSADMQHFLQDCVDGLFKEVKE [Y7M], the protein stability index was 2.08.
To NDDSADHQHFLQDCVDGLFKEVKE [Y7H] belongs 4.36; to NDDSADQQHFLQDCVDGLFKEVKE [Y7Q], 4.52.
Take NDDSADVQHFLQDCVDGLFKEVKE [Y7V]: the protein stability index stood at 3.
As for NDDSADNQHFLQDCVDGLFKEVKE [Y7N], the protein stability index was found to be 5.14.
For the variant NDDSADDQHFLQDCVDGLFKEVKE [Y7D], the protein stability index came out at 4.17.
To NDDSADGQHFLQDCVDGLFKEVKE [Y7G] belongs 4.01; to NDDSADEQHFLQDCVDGLFKEVKE [Y7E], 4.11; to NDDSADSQHFLQDCVDGLFKEVKE [Y7S], 3.89.
Turning to NDDSADPQHFLQDCVDGLFKEVKE [Y7P], the protein stability index was determined as 4.62.
Regarding NDDSADTQHFLQDCVDGLFKEVKE [Y7T], the protein stability index was found to be 3.31.
Regarding NDDSADLQHFLQDCVDGLFKEVKE [Y7L], the protein stability index was 3.03.
As for NDDSADIQHFLQDCVDGLFKEVKE [Y7I], the protein stability index was found to be 1.75.
In the case of NDDSADFQHFLQDCVDGLFKEVKE [Y7F], the protein stability index was found to be 2.05.
To NDDSADRQHFLQDCVDGLFKEVKE [Y7R] belongs 4.1; to NDDSADCQHFLQDCVDGLFKEVKE [Y7C], 2.55.
To NDDSADAQHFLQDCVDGLFKEVKE [Y7A] belongs 3.78; to NDDSADYQHFLQDCVDALFKEVKE [G17A], 3.68.
For the variant NDDSADYQHFLQDCVDCLFKEVKE [G17C], the protein stability index worked out at 1.71.
To NDDSADYHHFLQDCVDGLFKEVKE [Q8H] belongs 2.36; to NDDSADYYHFLQDCVDGLFKEVKE [Q8Y], 1.56; to NDDSADYIHFLQDCVDGLFKEVKE [Q8I], 2.26.
Consider NDDSADYGHFLQDCVDGLFKEVKE [Q8G], for which the protein stability index amounted to 2.75.
As for NDDSADYLHFLQDCVDGLFKEVKE [Q8L], the protein stability index came to 1.77.
As for NDDSADYCHFLQDCVDGLFKEVKE [Q8C], the protein stability index was 1.69.
To NDDSADYTHFLQDCVDGLFKEVKE [Q8T] belongs 2.44.
To NDDSADYRHFLQDCVDGLFKEVKE [Q8R] belongs 2.08; to NDDSADYAHFLQDCVDGLFKEVKE [Q8A], 2.4; to NDDSADYFHFLQDCVDGLFKEVKE [Q8F], 2.65.
Consider NDDSADYSHFLQDCVDGLFKEVKE [Q8S], for which the protein stability index stood at 2.88.
To NDDSADYNHFLQDCVDGLFKEVKE [Q8N] belongs 3.03; to NDDSADYVHFLQDCVDGLFKEVKE [Q8V], 2.93; to NDDSADYEHFLQDCVDGLFKEVKE [Q8E], 2.62.
As for NDDSADYDHFLQDCVDGLFKEVKE [Q8D], the figure is 2.96; as for NDDSADYPHFLQDCVDGLFKEVKE [Q8P], 2.64; as for NDDSADYMHFLQDCVDGLFKEVKE [Q8M], 1.43.
Consider NDDSADYKHFLQDCVDGLFKEVKE [Q8K], for which the protein stability index was 2.1.
As for NDDSADYWHFLQDCVDGLFKEVKE [Q8W], the protein stability index stood at 3.5.
